Experimental data as given in patent US10450368 (DUKE UNIVERSITY, dated 2019).

What was measured:
CH0505_CON D7gp120/293i = test: ELISA
CH505w020.14D8gp120 = target: T1, CH505w020.14D8gp120; test: ELISA
T1 construct: also called CH505w20.14 gp120

CH505w030.20D8gp120/293F = target: T2, CH505w030.20D8gp120/293F; test: ELISA
T2 construct: also called CH505w30.20 gp120

CH505.w30.12D8gp120 = target: T3, CH505.w30.12D8gp120; test: ELISA
T3 construct: also called CH505w30.12 gp120

CH505w136.B18D8gp120 = test: ELISA
CH505.M5D8gp120293F = test: ELISA
CH505.M10D8gp120 = test: ELISA
CH505.M11D8gp120/293F = test: ELISA
CH505.M19D8gp120 = test: ELISA
CH505.M21D8gp120/293F = test: ELISA
CH505.M9D8gp120/293F = test: ELISA
CH505.M7D8gp120/293F = test: ELISA
CH505.TF mutant gp120 M6 = target: T4, CH505.TF mutant gp120 M6 (HIV-1); test: ELISA
T4 construct: domain: gp120

CH505.TF mutant gp120 M8 = target: T5, CH505.TF mutant gp120 M8 (HIV-1); test: ELISA
T5 construct: domain: gp120

[1] = target: T6, CH505.TF mutant gp120 M20 (HIV-1); test: ELISA
T6 construct: domain: gp120

SSA [2] = target: T7, SSA; test: AtheNA, Ab 25 ug/ml
T7 construct: also called SSA (Ro)

Sm (Smith antigen) [3] = target: T8, Sm (Smith antigen); test: AtheNA, Ab 25 ug/ml
T8 construct: Protein complex

RNP (ribonucleoprotein) [4] = target: T9, RNP (ribonucleoprotein); test: AtheNA, Ab 25 ug/ml
T9 construct: Protein-RNA complex

Scl-70 [5] = target: T10, Scl-70 (UniProt P11387 1-765); test: AtheNA, Ab 25 ug/ml
T10 sequence: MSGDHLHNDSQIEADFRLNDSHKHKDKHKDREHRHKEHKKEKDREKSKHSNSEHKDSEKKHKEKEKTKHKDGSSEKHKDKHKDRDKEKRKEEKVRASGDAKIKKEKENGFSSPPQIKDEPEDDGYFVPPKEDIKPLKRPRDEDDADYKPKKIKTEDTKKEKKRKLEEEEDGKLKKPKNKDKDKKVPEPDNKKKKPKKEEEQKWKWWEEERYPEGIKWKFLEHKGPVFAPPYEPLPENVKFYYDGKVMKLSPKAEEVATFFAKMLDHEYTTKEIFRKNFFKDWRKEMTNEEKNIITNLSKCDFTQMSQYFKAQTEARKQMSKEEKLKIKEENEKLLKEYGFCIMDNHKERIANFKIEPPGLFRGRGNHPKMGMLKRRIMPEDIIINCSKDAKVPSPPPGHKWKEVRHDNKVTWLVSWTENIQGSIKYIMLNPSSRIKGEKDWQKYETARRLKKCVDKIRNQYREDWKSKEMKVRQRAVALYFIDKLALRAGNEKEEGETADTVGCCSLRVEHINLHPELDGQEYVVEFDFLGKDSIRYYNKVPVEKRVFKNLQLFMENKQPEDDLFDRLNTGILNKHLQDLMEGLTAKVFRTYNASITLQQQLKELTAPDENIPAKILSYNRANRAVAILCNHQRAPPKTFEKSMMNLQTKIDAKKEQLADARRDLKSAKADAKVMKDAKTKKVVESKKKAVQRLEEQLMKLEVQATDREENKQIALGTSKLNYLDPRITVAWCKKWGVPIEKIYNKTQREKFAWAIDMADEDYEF

Histones [6] = target: T11, Histones; test: AtheNA, Ab 25 ug/ml
T11 construct: Mixture of proteins

SSA [7] = target: T7, SSA; test: AtheNA, Ab 50 ug/ml
Sm (Smith antigen) [8] = target: T8, Sm (Smith antigen); test: AtheNA, Ab 50 ug/ml
Histones [9] = target: T11, Histones; test: AtheNA, Ab 50 ug/ml
SSA [10] = target: T7, SSA; test: AtheNA, Ab 12.5 ug/ml
Sm (Smith antigen) [11] = target: T8, Sm (Smith antigen); test: AtheNA, Ab 12.5 ug/ml
RNP (ribonucleoprotein) [12] = target: T9, RNP (ribonucleoprotein); test: AtheNA, Ab 12.5 ug/ml
Scl-70 [13] = target: T10, Scl-70; test: AtheNA, Ab 12.5 ug/ml
Histones [14] = target: T11, Histones; test: AtheNA, Ab 12.5 ug/ml
SSA [15] = target: T7, SSA; test: AtheNA, Ab 6.25 ug/ml
Sm (Smith antigen) [16] = target: T8, Sm (Smith antigen); test: AtheNA, Ab 6.25 ug/ml
RNP (ribonucleoprotein) [17] = target: T9, RNP (ribonucleoprotein); test: AtheNA, Ab 6.25 ug/ml
Scl-70 [18] = target: T10, Scl-70; test: AtheNA, Ab 6.25 ug/ml
Histones [19] = target: T11, Histones; test: AtheNA, Ab 6.25 ug/ml
[20] = target: T12, HIV-1 CH505 transmitted/founder gp120 Env (HIV-1); test: competition ELISA, blocking of CH106 binding to gp120
T12 construct: domain: gp120; also called CH505.TF gp120; CH505 TF gp120 Env

B1: CH236 (antibody, V domains shown)
VH: QVQLVQSGAAVKRPGASVTISCRASGYTFTTYYIHWVRQAPGQRLELMGMIDPSRGRTDYAQKFQGRVTMSRDTSTSTLYMELRSLRPDDTALYYCVRNVGTEGSLLHYDYWGQGTLVTVSS
VL: EIVLTQSPATLSVSPGERVTLSCRASQSVRNNLAWYRQKRGQAPRLLIYGASTRATGIPARFSGSGSGTEFTLTISSMQSEDFAVYYCQQYNNWWTFGQGTKVEIK
notes: also called CH236_4A/293i
B1 was tested, and the LogAUC (CH0505_CON D7gp120/293i) was 6.89, the LogAUC (CH505w020.14D8gp120) was 6.72 and the LogAUC (CH505w030.20D8gp120/293F) was 6.23. For the same binder, the LogAUC (CH505.w30.12D8gp120) was 0.95, the LogAUC (CH505w136.B18D8gp120) was 3.51 and the LogAUC (CH505.M5D8gp120293F) was 7.27. It also gave a LogAUC (CH505.M10D8gp120) of 6.07, a LogAUC (CH505.M11D8gp120/293F) of 1.43 and a LogAUC (CH505.M19D8gp120) of 1.54. It also gave a LogAUC (CH505.M21D8gp120/293F) of 0, a LogAUC (CH505.M9D8gp120/293F) of 0 and a LogAUC (CH505.M7D8gp120/293F) of 0. The LogAUC (CH505.TF mutant gp120 M6) was 6.31, the LogAUC (CH505.TF mutant gp120 M8) was 0 and the LogAUC [1] was 0. The AtheNA signal (SSA [2]) was 224 relative luminescence units, the AtheNA signal (Sm (Smith antigen) [3]) was 165 relative luminescence units and the AtheNA signal (RNP (ribonucleoprotein) [4]) was 69 relative luminescence units. The AtheNA signal (Scl-70 [5]) was 62 relative luminescence units, the AtheNA signal (Histones [6]) was 193 relative luminescence units and the AtheNA signal (SSA [7]) was 177 relative luminescence units. The AtheNA signal (Sm (Smith antigen) [8]) was 128 relative luminescence units, the AtheNA signal (Histones [9]) was 138 relative luminescence units and the AtheNA signal (SSA [10]) was 185 relative luminescence units. For the same binder, the AtheNA signal (Sm (Smith antigen) [11]) was 258 relative luminescence units, the AtheNA signal (RNP (ribonucleoprotein) [12]) was 78 relative luminescence units and the AtheNA signal (Scl-70 [13]) was 50 relative luminescence units. For the same binder, the AtheNA signal (Histones [14]) was 234 relative luminescence units, the AtheNA signal (SSA [15]) was 44 relative luminescence units and the AtheNA signal (Sm (Smith antigen) [16]) was 184 relative luminescence units. The AtheNA signal (RNP (ribonucleoprotein) [17]) was 40 relative luminescence units, the AtheNA signal (Scl-70 [18]) was 31 relative luminescence units and the AtheNA signal (Histones [19]) was 154 relative luminescence units. It also gave an IC50 [20] of 82.2 µg/mL.
